# According to article PMC2225174 (Acta Crystallographica Section F, 2006):
# B1: SsoPCNA2 (natural protein, Sulfolobus solfataricus, UniProt Q97Z84 1-245, looked up)
# chain: MKAKVIDAVSFSYILRTVGDFLSEANFIVTKEGIRVSGIDPSRVVFLDIFLPSSYFEGFEVSQEKEIIGFKLEDVNDILKRVLKDDTLILSSNESKLTLTFDGEFTRSFELPLIQVESTQPPSVNLEFPFKAQLLTITFADIIDELSDLGEVLNIHSKENKLYFEVIGDLSTAKVELSTDNGTLLEASGADVSSSYGMEYVANTTKMRRASDSMELYFGSQIPLKLRFKLPQEGYGDFYIAPRAD
# Target: T1, SsoPCNA1 (Sulfolobus solfataricus, UniProt P57766 1-249)
# T1 sequence (looked up): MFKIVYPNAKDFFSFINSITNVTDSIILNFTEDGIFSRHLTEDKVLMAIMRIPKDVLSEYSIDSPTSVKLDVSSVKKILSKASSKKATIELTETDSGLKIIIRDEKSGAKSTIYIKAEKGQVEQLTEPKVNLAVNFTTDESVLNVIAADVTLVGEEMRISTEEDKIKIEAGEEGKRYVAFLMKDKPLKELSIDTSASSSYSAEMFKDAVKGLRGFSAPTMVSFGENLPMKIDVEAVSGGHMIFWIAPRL
# Assay: crystal structure
binder,measurement,value
B1,binding result,binds
